Source: the RNAGym collection of RNA variant scans (doi:10.7554/elife.80360)

B1: Hammerhead Ribozyme (parent)
chain: ACCGGAUGUGCUUUCCGGUCUGAUGAGUCCGUGAGGACGAAACAG

Variants of: B1
Assay: self-cleavage, relative activity (ratio to wild type); higher = more cleavage; co-transcriptional

Variant	self-cleavage
G5A G22C	0.315
G8C U14G	1.11
G25U G33U	0.325
G8U G22A	0.37
C11A G35C	0.887
G5C G10C	0.441
C2A G27U	0.32
C2A G27A	0.438
C2A G27C	0.339
G10U C11A	1.25
G17C A40C	0.328
U32C C38A	0.691
G22U A34U	0.327
G4A A41U	0.382
C2U A44C	0.664
A23U A26U	0.374
C2G U13G	0.332
C16G U28C	0.269
G5U C30A	0.795
G35U G45A	0.473
A6U C11A	0.831
U7G A23G	0.273
U14G U32C	0.653
G10U U13C	1.11

Variant	self-cleavage
G5U G10U	1.15
G4U C20U	0.364
G4U C20G	0.272
G27A A44U	0.53
A23C C38U	0.316
A23C C38G	0.371
A23U A41C	0.33
G33C A41C	0.432
G22U G45A	0.345
G18C U32A	0.554
C15G U32G	0.574
G18C G45U	0.374
U14G A41U	0.367
U13A G22C	0.312
G22A A40G	0.297
G10A A26G	0.353
G25C C43U	0.425
U28C A41G	0.364
C29A G45C	0.388
G8U C43U	0.677
G10A G33C	0.959
G18U A40C	0.394
C11G U21C	0.987
G27C A41U	0.333

Variant	self-cleavage
G4C U13C	0.856
C3A C29U	0.534
G4U G33C	0.416
U7C C15A	0.737
A23G A40C	0.355
C29G C30A	0.432
U24C A44U	0.542
C16G G17C	0.445
G4C G22C	0.241
G27A A37U	0.522
C16U G31C	0.844
G22C A37C	0.286
G17C A34C	0.438
G25C A44U	0.263
A44U G45A	0.607
A6C G45U	0.44
C20U G36U	0.359
U9G	0.989
G5C A6G	0.437
A23U G36U	0.314
C2U U13G	1.24
C15G	0.877
G31A A44G	1.51
C2U U7C	0.541

Variant	self-cleavage
C30A A40C	0.466
U9A G35U	0.435
U12C A34G	1.09
U19A A42C	0.369
U19A A42G	0.34
G22A A23G	0.313
G33U A40C	0.726
G27A A34U	0.574
A6G C30A	0.48
A1G G22A	0.384
G22C A44G	0.672
U14C C29G	0.497
U12A A34C	1.08
G27U A41G	0.312
A42G G45U	0.354
G17A C29U	0.68
U14C A41G	0.312
G31A G45C	0.945
C15U A37U	0.953
C2A A6G	0.426
A26C G27A	0.313
U12A A23G	0.394
C20U U28A	0.621
U14G U19A	0.383

Variant	self-cleavage
G5U A37C	0.403
G4A C38U	0.453
C3U U9G	0.657
A37C A41U	0.296
U12A U21A	0.658
G4A C20A	0.402
G25U A37U	0.302
U21C A41C	0.329
C2U G17C	0.375
G5U G39C	0.306
G4A U12G	0.541
G18A U32C	0.731
C29G A42G	0.269
C29G A42C	0.407
C2G A23G	0.318
C11G C29U	1.28
C16G G18A	0.533
U14A A42U	0.272
U13C G17U	0.884
G10C G25C	0.397
U7A G18C	0.365
C29A A41U	0.301
C3U A23C	0.491
U7C G17A	0.32

Variant	self-cleavage
A6C A40C	0.386
A1U G5U	0.354
C15A G25C	0.381
C3U C15G	0.382
G35A A41U	0.278
U28G A40G	0.261
C20A A42U	0.386
A6U U12A	0.538
G31C C38A	0.62
A6C C16G	0.372
G22U A37U	0.296
U19A A26C	0.364
G17C G18C	0.347
U14G G45A	0.708
G25C G31A	0.339
G5A U28G	0.377
C30U C38A	0.695
G10C C30U	1.28
U14G U28A	0.796
A6U U9G	0.641
G18C A34G	0.422
G4C U9A	0.613
C11A C20G	0.319
C3U G35U	0.761

Variant	self-cleavage
G17C A23U	0.326
U7G C30U	1.34
C3U A6G	0.747
C11G G36U	0.69
G17A G22C	0.319
G4A A44C	0.388
G8U A42U	0.344
A26U G36C	0.265
G10U A34G	0.942
G25C G33U	0.231
G27A C30A	0.529
C20G C38G	0.239
G4A G27A	0.332
G5U C16G	0.883
G35C C38U	0.67
C29U G36A	0.722
U32G C43A	0.256
C15G C43U	0.248
C2A U32G	0.469
G31C A37U	0.587
U13A A37G	1.15
A6C G18A	0.311
C29A A40C	0.354
